Laboratory results reported in patent US20230062308A1, “TREATMENT OF CK8 POSITIVE CANCERS IN RELATION WITH K-RAS GENE STATUS” (INTERNATIONAL - DRUG - DEVELOPMENT - BIOTECH, priority 2017, published 2023).
Changes are numbered by the printed parent chain. Each block holds one molecule with its values, some of them ahead of it.

How the values were obtained:
[1] = test system: Human HAN larynx cell line BICR18; test: In vivo tumour growth, HAN CDX model (larynx cell line BICR18); settings: BICR18 s.c. in SCID mice; HzR022 (D-A10) 10 mg/kg i.p. BIW × 3; cisplatin 2.5 mg/kg i.p. QW × 3
Experimental: Human HAN larynx cell line BICR18 was subcutaneously injected in SCID mice, with a concentration of 1.10^6 cells per injection (200 μL). Mice were randomized when the tumours reached a mean volume of about 100 mm^3 for the 9 groups (total 45 mice). […] The endpoint was defined by animal ethics as a tumour diameter of >18 mm, significant weight loss or alteration of animal well-being. In order to assess the effectiveness of the compounds on tumourigenesis, tumour volume was measured two times a week. The size of the primary tumours were measured using calipers and the tumour volume (TV) was extrapolated to a sphere using the formula TV= 4/3π×r^3, by calculating the mean radius from the two measurements. The median and standard deviation were also calculated for each group. Median is preferred to mean in order to exclude the extreme values. MAb treatment was administered by intraperitoneal injection twice a week during three weeks at 10 or 1 mg/kg doses. The cisplatin (Myland) treatment was administered by intraperitoneal injection once per week during three weeks at 1, 2.5 or 5 mg/kg doses. The product was prepared in accordance with the sponsor's guidelines, i.e. diluted in PBS. Mice were sacrificed when the tumours reached a maximum volume of 1600 mm^3. […] The t-test (two-tailed test) was performed on the tumour volume values (mm^3) measured on the day of sacrifice.

CK8 = biological target: T1, CK8 (Homo sapiens, UniProt P05787); test: Antibody internalisation assay by flow cytometry; format: cell-based; parameters: methods to investigate on CK8 cellular expression at the cell surface analysed by flow cytometry; endogenous in cells; settings: 4° C. versus 37° C., 24 hours; 0.78 or 0.39 μg/mL; HCT116, U87MG, BICR56, BxPC3, DU145 cell lines (FIG. 4-6)
T1 sequence (P05787 1-483): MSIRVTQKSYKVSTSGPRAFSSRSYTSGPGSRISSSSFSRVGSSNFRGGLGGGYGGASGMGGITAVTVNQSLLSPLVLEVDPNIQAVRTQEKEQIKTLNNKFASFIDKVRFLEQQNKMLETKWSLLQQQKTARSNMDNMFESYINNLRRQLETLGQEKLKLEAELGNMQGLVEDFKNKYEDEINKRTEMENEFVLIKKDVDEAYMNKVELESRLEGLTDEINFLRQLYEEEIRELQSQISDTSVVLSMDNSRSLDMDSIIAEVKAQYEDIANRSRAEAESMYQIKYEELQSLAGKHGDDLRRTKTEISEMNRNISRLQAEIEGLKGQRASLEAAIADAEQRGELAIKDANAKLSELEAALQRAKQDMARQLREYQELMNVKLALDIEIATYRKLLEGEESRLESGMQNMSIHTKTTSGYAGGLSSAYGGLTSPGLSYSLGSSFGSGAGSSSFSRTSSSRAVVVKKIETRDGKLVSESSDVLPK
Experimental: This example describes methods to investigate on HzR022 (D-A10) internalisation following CK8 detection at the cell surface analysed by flow cytometry.
Flow cytometry experiments for MAb internalisation. Briefly, 2.10^5 cells per 96 wells are incubated at 4° C. versus 37° C. during 24 hours with a dilution of unconjugated murine anti CK8 MAb at 50 μg/mL then diluted at ½. The MAb anti CK8 tested were D-A10 (IgG2b), D-F5 (IgG2a) or D-D6 (IgG1), from iDD biotech MAb panel. The isotype matched MAbs used were B-Z1 (IgG1), B-Z2 (IgG2a) or B-E4 (IgG2b) (Diaclone, Besancon, France). Unbound antibodies were washed away with PBS (Life technologies, St Aubin, France) supplemented by 1% Bovine Serum Albumin (Sigma, St Quentin Fallavier, France). Subsequently, cells are centrifuged (5 min at 400 g) and bound antibody is detected with Fluorescein Isothiocyanate (FITC) conjugated goat (Fab′)2 polyclonal anti mouse Ig (MP Biomedical, Illkirch, France) at 4° C. for 30 min. Detection reagent is washed away and cells are centrifuged (5 min at 400 g) and suspended in 300 μL PBS. Bound detection antibody is quantified on a FACSCAN (BD Biosciences, Rungis, France), (FL1 channel, 3 000 events per acquisition). During the experiment, the respective isotype controls are included to exclude any unspecific binding events
Results of experiments are shown in FIG. 4 for D-A10 MAb (at 0.78 or 0.39 μg/mL), in FIG. 5 for D-D6 (at 0.78 or 0.39 μg/mL), in FIG. 6 for D-F5 (at 0.78 or 0.39 μg/mL). One example was shown for CRC from HCT116 cell line, GBM from U87MG cell line, HAN from BIRC56 cell line, PC from BxPC3 or PRC from DU145.

internalization potential (CK8): lower internalization potential
B2: D-F5: murine anti-CK8 monoclonal antibody (IgG2a); VL SEQ ID NO: 40, VH SEQ ID NO: 42 (antibody, V domains shown)
VH: QVQLKESGPGLVAPSQSLSITCTVSGFSLTSYGVHWVRQPPGKGLEWLGVIWAGGSTNYNSALMSRLRISKDNSKSQVFLKMNSLQTDDTAMYYCARIYGNYGRFAYWGQGTSVTVSS
VL: DVVMTQTPLSLPVSLGDQASISCRSSQSIVHSNGNTYLEWYLQKPGQSPKLLIYKVSNRLSGVPDRFSGSGSGTDFTLKISRVEAEDLGVYYCFQGSLVPLTFGGGTKLEIK
modifications: VH-mR022 (D-F5); VL-mR022 (D-F5)

internalization potential (CK8): highest internalization potential
B3: D-D6: murine anti-CK8 monoclonal antibody (IgG1); VL SEQ ID NO: 36, VH SEQ ID NO: 38 (antibody, V domains shown)
VH: DVQLQESGPGLVKPSQSLSLTCTVTGYSITSDYAWNWIRQFPGNKLEWMGYISYSGRTSYNPSLKSRISITRDTSKNHFFLQLNSVTTEDTATYYCAPLTTGVGYAMDYWGQGTSVTVSS
VL: B2 VL with I29L, E39H, L51V, L60F, Y92F, F94S, G96S, S97T, L98H, L101F
modifications: VH-mR022 (D-D6); VL-mR022 (D-D6)

Further lines, the molecule ahead of its results:

Molecule: N.N.[Cl][Pt][Cl] [cisplatin, reference compound]
tumour growth control (tumour volume, FIG. 3) [1]: rapid cisplatin escape

B1: D-A10: murine anti-CK8 monoclonal antibody (IgG2b); VL SEQ ID NO: 2, VH SEQ ID NO: 4 (antibody, V domains shown)
VH: EVQLLETGGGLVQPGGSRGLSCEGSGFTFSGFWMSWVRQTPGKTLEWIGDINSDGSAIKYAPSIKDRFTIFRDNDKSTLYLQMSNVRSEDTATYFCIAHYSGGGFAYWGQGTSVTVSS
VL: NIVMTQAAPSVPVTPGESVSISCRSSKSLLYSNGNTYLYWFLQRPGQSPQRLIYYMSNLASGVPDRFSGRGSGTDFTLRISRVEAEDVGVYYCMQSLEYPFTFGGGTKLEIK
modifications: VH mD-A10; VLmD-A10
internalization potential (CK8): highest internalization potential
